Biological target: Bacteriophage P23-77 small major capsid protein VP16, recombinant (bacteriophage P23-77)
Assay: SEC

Work on “Bacteriophage P23-77 small major capsid protein VP16, recombinant (natural protein)” yielded a stoichiometry N of 2.

Reference: publication PMC3919167
